This data set deals with the molecule itself. Briefly: crystal structure.

We go through 1 protein from paper PMC9076272 (RSC Advances, 2019).

B1: Pseudomonas aeruginosa single-stranded DNA-binding protein (PaSSB) (natural protein, UniProt P40947 1-165, looked up)
chain: MARGVNKVILVGNVGGDPETRYMPNGNAVTNITLATSESWKDKQTGQQQERTEWHRVVFFGRLAEIAGEYLRKGSQVYVEGSLRTRKWQGQDGQDRYTTEIVVDINGNMQLLGGRPSGDDSQRAPREPMQRPQQAPQQQSRPAPQQQPAPQPAQDYDSFDDDIPF
By stoichiometry N is commonly meant a count of units in the complex or per binding partner. In the case of B1, the “stoichiometry N” value amounted to 4.
